Data reported in PMC6636993.

Legend:
[1] = target: PVY coat protein N-terminal deletion mutant ΔN49 (potato virus Y (NTN strain)); experiment: cryo-EM 2D class averages
[2] = target: PVY coat protein N-terminal deletion mutant ΔN49 (potato virus Y (NTN strain)); experiment: SEC-MALS

## PVY coat protein N-terminal deletion mutant ΔN49 (domain or fragment)
[1]
  stoichiometry N: 8
[2]
  stoichiometry N: 8
